Test results taken from paper PMC3816987.

Tests used:
[1] = target: GST fusion protein of Tulp1-N (1M-298Q) (mouse) (UniProt Q9Z273); test: phage binding assay
[2] = target: GST-free tubby-N (tubby N-terminus, 1M-242P) (mouse) (UniProt P50586); test: phage binding assay
GST-free tubby-N (tubby N-terminus, 1M-242P) (mouse), sequence (P50586 1-242): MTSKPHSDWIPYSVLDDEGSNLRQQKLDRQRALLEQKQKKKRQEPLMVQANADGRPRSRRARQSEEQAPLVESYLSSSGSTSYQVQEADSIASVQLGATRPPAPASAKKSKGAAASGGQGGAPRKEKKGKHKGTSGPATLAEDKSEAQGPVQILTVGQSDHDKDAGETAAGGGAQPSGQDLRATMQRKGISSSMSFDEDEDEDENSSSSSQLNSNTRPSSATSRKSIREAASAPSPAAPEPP

GST fusion protein of Tulp1-N (1M-298Q) (mouse), sequence (Q9Z273 1-298): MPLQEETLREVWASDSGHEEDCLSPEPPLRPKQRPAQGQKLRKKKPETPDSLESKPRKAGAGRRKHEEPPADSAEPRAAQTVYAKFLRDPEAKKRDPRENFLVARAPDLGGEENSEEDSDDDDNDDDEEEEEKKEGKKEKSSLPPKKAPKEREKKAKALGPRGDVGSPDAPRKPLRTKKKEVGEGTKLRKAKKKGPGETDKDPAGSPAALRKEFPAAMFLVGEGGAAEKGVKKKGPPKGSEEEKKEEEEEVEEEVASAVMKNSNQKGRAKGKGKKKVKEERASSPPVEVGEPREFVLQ
Zinc finger E-box binding homeobox 1 (Zeb1) phage clone, 903E-1021E, sequence (Q64318 whole entry, the tested form may be a part): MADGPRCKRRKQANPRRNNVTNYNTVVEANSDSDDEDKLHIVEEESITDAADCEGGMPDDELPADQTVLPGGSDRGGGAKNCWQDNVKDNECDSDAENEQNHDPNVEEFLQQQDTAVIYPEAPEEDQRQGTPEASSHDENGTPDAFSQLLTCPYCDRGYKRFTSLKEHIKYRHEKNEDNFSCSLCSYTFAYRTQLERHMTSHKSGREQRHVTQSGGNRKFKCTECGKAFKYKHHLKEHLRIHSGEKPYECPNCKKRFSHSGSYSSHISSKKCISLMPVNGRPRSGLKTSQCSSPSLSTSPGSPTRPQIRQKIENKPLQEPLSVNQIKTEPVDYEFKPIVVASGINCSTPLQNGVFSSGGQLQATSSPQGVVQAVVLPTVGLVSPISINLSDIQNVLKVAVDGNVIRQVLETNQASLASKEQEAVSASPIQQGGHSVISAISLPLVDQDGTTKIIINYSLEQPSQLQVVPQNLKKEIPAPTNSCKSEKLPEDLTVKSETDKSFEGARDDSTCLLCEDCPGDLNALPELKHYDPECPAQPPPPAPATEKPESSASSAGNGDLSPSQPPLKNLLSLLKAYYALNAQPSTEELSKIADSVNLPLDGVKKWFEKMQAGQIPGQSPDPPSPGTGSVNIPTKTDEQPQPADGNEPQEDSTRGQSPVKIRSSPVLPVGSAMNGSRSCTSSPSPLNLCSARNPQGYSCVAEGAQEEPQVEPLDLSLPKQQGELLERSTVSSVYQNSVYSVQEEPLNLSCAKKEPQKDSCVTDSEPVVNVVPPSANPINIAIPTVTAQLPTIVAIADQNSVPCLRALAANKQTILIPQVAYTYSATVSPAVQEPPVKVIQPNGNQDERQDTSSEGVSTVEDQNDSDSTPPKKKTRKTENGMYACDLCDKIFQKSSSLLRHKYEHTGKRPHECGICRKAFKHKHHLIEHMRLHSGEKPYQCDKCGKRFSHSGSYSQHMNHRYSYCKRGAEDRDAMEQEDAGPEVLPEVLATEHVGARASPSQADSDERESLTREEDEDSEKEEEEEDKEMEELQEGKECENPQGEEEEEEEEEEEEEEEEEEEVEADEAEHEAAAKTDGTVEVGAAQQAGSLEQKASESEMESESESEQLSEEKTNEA
High mobility group (Hmg) box 2 (Hmgb2) phage clone, 89K-188E, sequence (P30681 whole entry, the tested form may be a part): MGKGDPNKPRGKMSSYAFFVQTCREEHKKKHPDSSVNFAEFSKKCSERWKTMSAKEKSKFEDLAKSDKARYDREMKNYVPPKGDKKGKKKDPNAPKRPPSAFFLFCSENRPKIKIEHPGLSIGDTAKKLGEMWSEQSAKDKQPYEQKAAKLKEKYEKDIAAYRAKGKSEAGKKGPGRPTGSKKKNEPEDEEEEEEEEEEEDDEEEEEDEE
ATP-binding cassette F1 (Abcf1) phage clone, 57K-196G, sequence (Q6P542 whole entry, the tested form may be a part): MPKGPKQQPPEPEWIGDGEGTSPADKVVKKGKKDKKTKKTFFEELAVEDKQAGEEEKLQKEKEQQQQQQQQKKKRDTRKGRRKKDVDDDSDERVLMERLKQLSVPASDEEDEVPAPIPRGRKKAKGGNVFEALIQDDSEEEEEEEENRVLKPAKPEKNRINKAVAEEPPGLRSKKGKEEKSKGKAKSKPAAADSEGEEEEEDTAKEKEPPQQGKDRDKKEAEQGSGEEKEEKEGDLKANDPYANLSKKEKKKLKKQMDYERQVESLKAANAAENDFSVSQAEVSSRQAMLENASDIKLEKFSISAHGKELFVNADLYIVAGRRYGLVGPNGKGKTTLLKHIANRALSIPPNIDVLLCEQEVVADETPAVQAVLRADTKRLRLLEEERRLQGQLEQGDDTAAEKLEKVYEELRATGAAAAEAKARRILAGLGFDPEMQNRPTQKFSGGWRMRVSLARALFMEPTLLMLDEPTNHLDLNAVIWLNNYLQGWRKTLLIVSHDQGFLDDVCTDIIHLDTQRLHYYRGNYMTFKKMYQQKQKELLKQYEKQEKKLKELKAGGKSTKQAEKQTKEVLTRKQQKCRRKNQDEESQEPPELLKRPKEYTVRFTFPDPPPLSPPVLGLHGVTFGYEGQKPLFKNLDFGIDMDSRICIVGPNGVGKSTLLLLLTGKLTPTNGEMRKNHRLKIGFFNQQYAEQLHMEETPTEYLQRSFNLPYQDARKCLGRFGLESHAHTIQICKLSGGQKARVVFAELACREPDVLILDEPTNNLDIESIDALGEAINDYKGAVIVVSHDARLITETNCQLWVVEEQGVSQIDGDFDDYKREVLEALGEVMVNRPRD
Structure specific recognition protein 1 (Ssrp1) phage clone, 486E-619G, sequence (Q08943 2-708): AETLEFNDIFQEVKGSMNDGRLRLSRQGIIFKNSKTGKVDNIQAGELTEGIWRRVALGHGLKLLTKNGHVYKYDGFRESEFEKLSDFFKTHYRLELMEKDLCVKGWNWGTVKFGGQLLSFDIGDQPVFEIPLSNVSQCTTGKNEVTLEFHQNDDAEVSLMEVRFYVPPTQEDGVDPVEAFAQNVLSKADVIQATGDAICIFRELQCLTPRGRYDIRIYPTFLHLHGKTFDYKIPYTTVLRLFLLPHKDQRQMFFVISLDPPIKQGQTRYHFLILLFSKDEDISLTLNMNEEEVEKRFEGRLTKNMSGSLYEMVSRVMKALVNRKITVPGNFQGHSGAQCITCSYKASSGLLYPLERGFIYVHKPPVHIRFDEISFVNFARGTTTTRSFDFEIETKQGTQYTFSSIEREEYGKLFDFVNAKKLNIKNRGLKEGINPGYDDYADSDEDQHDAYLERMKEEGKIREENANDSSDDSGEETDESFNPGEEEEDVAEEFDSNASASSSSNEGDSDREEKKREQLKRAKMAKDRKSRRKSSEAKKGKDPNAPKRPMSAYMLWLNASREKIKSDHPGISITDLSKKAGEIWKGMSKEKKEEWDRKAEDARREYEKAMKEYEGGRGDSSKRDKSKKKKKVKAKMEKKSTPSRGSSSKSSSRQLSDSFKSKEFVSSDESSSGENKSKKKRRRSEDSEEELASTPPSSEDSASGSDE
Zinc finger protein 609 (Zfp609) phage clone, 1M-183E (domain or fragment), sequence (Q8BZ47 whole entry, the tested form may be a part): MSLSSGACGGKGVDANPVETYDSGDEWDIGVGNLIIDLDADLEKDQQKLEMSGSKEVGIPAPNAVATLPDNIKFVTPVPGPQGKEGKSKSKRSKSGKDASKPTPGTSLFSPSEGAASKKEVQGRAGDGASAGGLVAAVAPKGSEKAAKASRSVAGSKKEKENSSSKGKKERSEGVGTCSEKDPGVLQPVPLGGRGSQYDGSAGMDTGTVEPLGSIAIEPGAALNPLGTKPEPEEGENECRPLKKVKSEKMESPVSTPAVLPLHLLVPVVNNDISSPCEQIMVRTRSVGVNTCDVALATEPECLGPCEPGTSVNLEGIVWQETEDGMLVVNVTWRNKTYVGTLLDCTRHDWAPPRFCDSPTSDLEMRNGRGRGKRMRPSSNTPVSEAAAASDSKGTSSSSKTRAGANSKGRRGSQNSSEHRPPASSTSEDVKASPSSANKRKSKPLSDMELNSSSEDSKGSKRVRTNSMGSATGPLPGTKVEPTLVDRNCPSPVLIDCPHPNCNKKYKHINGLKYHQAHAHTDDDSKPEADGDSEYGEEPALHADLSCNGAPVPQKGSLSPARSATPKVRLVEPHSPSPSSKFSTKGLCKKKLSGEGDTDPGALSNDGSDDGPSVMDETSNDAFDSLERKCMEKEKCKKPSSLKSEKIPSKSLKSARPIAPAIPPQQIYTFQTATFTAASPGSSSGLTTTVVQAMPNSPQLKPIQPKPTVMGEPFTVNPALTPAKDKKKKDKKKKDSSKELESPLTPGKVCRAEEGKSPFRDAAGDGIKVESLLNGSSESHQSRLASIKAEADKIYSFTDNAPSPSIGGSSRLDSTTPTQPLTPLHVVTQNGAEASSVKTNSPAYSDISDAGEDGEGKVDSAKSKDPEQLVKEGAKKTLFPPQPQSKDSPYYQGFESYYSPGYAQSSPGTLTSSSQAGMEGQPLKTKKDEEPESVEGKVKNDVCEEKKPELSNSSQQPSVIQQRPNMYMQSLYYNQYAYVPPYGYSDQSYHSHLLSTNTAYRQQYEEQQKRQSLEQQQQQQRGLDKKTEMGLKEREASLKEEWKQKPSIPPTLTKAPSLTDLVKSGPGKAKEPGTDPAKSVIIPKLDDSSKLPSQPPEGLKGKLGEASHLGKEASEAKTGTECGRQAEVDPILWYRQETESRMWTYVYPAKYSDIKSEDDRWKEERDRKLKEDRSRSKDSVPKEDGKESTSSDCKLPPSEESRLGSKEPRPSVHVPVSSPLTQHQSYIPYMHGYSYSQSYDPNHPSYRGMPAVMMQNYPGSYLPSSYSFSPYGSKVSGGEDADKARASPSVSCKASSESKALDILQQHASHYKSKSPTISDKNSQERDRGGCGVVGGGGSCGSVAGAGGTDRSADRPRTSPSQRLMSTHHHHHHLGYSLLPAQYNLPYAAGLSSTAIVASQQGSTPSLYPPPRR
Hmg. nucleosomal binding domain 1 (Hmgn1) phage clone, 1M-49K, sequence (P18608 2-96): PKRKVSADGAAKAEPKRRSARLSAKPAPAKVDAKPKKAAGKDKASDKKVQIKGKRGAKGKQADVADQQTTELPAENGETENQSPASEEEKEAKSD

| Substance | binding specificity, clonal phage vs. control phage [1] | binding specificity, clonal phage vs. control phage [2] |
| --- | --- | --- |
| ATP-binding cassette F1 (Abcf1) phage clone, 57K-196G (from UniProt Q6P542 57-196) (domain or fragment) | 33.4 X | 68.2 X |
| Armadillo repeat containing, X-linked 4 phage clone, 419S-587N (domain or fragment) |  | 40.1 X |
| High mobility group (Hmg) box 2 (Hmgb2) phage clone, 89K-188E (from UniProt P30681 89-188) (domain or fragment) | 55.2 X | 312 X |
| Hmg. box 2-like 1 (Hmgb2l1) phage clone, 170K-305G (domain or fragment) |  | 29.8 X |
| Hmg. nucleosomal binding domain 1 (Hmgn1) phage clone, 1M-49K (from UniProt P18608 1-49) (domain or fragment) |  | 61.4 X |
| Microtubule-associated protein 7 (Mtap7) phage clone, 23A-114R (from UniProt O88735 23-114) (domain or fragment) |  | 3.5 X |
| PC4 and SFRS1 interacting protein 1 (Psip1) phage clone, 152K-219K (from UniProt Q99JF8-1 152-219) (domain or fragment) | 24.1 X | 196 X |
| Structure specific recognition protein 1 (Ssrp1) phage clone, 486E-619G (from UniProt Q08943-1 486-619) (domain or fragment) | 39.7 X | 157 X |
| Zinc finger E-box binding homeobox 1 (Zeb1) phage clone, 903E-1021E (from UniProt Q64318 903-1021) (domain or fragment) | 56.7 X | 284 X |
| Zinc finger protein 609 (Zfp609) phage clone, 1M-183E (domain or fragment) |  | 53.2 X |
